This is an account of results in US20230174653A1.

Assay [1] has as its target T1, B7-H3 (CD276), endogenous on tumor cells (LM7, A549, U373) (UniProt Q5ZPR3).
T1 sequence (looked up): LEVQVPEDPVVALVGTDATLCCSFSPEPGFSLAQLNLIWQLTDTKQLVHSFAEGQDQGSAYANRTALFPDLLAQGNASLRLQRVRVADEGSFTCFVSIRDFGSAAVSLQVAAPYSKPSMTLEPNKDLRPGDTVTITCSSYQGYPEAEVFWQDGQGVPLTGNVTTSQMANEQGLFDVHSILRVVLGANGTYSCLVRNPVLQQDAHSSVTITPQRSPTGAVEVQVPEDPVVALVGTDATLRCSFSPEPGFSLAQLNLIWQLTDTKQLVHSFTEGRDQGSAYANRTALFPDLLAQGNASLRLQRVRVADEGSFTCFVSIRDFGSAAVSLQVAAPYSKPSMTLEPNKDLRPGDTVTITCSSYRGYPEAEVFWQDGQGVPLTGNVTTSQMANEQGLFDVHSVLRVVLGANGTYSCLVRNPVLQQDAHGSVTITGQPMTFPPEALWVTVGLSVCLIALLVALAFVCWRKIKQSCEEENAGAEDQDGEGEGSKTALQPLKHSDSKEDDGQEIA
As to the kind of experiment: cell-based or functional assay.

The target of assay [2] is T1, B7-H3 (CD276), endogenous on tumor cells (LM7, A549, U373). Nature of the assay: cell-based or functional assay. This is another data set of the same source.

Read-outs that look alike come from different tables or passages of the source.

With “CD8α/CD28.4-1BB third generation (3G) B7-H3-CAR (4-1BB signaling domain inserted into the CD8α/CD28-CAR), expressed on human T cells”, the cytolysis of LM7 tumor cells, impedance assay (xCelligence), 1st stimulation in assay [1] stood at 100%.

On to “CD8α/CD28 B7-H3-CAR (second generation B7-H3-CAR with MGA271-derived scFv, CD8α hinge/transmembrane domain, CD28 costimulatory domain and CD3ζ), expressed on human T cells”, for which, in assay [1], the cytolysis of LM7 tumor cells, impedance assay (xCelligence), 1st stimulation amounted to 100% and the cytolysis of LM7 tumor cells, impedance assay (xCelligence), 1st stimulation, 0.5:1 T-cell to tumor cell ratio is 100%. Consider “CD8α/4-1BB B7-H3-CAR (second generation B7-H3-CAR with MGA271-derived scFv, CD8α hinge/transmembrane domain, 4-1BB costimulatory domain and CD3ζ), expressed on human T cells”, for which, in assay [1], the cytolysis of LM7 tumor cells, impedance assay (xCelligence), 1st stimulation, 0.5:1 T-cell to tumor cell ratio was determined as 100%.

B1: CD28/4-1BB B7-H3-CAR (second generation B7-H3-CAR with MGA271-derived scFv, CD28 hinge/transmembrane domain, 4-1BB costimulatory domain and CD3ζ), expressed on … (protein)
chain: EVQLVESGGGLVQPGGSLRLSCAASGFTFSSFGMHWVRQAPGKGLEWVAYISSDSSAIYYADTVKGRFTISRDNAKNSLYLQMNSLRDEDTAVYYCGRGRENIYYGSRLDYWGQGTTVTVSSGGGGSGGGGSGGGGSDIQLTQSPSFLSASVGDRVTITCKASQNVDTNVAWYQQKPGKAPKALIYSASYRYSGVPSRFSGSGSGTDFTLTISSLQPEDFATYYCQQYNNYPFTFGQGTKLEIKIEVMYPPPYLDNEKSNGTIIHVKGKHLCPSPLFPGPSKPFWVLVVVGGVLACYSLLVTVAFIIFWVKRGRKKLLYIFKQPFMRPVQTTQEEDGCSCRFPEEEEGGCELRVKFSRSADAPAYQQGQNQLYNELNLGRREEYDVLDKRRGRDPEMGGKPRRKNPQEGLYNELQKDKMAEAYSEIGMKGERRRGKGHDGLYQGLSTATKDTYDALHMQALPPR
Turning to B1, the cytolysis of LM7 tumor cells, impedance assay (xCelligence), 1st stimulation, 0.5:1 T-cell to tumor cell ratio in assay [2] is 100%.

B2: CD28/CD28 B7-H3-CAR (second generation B7-H3-CAR with MGA271-derived scFv, CD28 hinge/transmembrane domain, CD28 costimulatory domain and CD3ζ), expressed on … (protein)
chain: EVQLVESGGGLVQPGGSLRLSCAASGFTFSSFGMHWVRQAPGKGLEWVAYISSDSSAIYYADTVKGRFTISRDNAKNSLYLQMNSLRDEDTAVYYCGRGRENIYYGSRLDYWGQGTTVTVSSGGGGSGGGGSGGGGSDIQLTQSPSFLSASVGDRVTITCKASQNVDTNVAWYQQKPGKAPKALIYSASYRYSGVPSRFSGSGSGTDFTLTISSLQPEDFATYYCQQYNNYPFTFGQGTKLEIKIEVMYPPPYLDNEKSNGTIIHVKGKHLCPSPLFPGPSKPFWVLVVVGGVLACYSLLVTVAFIIFWVRSKRSRLLHSDYMNMTPRRPGPTRKHYQPYAPPRDFAAYRSRVKFSRSADAPAYQQGQNQLYNELNLGRREEYDVLDKRRGRDPEMGGKPRRKNPQEGLYNELQKDKMAEAYSEIGMKGERRRGKGHDGLYQGLSTATKDTYDALHMQALPPR
Consider B2, for which the cytolysis of LM7 tumor cells, impedance assay (xCelligence), 1st stimulation, 0.5:1 T-cell to tumor cell ratio in assay [2] amounted to 100%.
